The source of these data is US20130261013A1 (MODPRO, published 2013).

Square brackets hold non-standard residues; d marks the D form. Side chains are listed from the residue outwards. Ends that are not written are not given here. * marks the point of attachment. X2 = 7‑methoxycoumarin‑3‑carboxylic acid, COc1ccc2cc(C(=O)*)c(=O)oc2c1; Dansyl = CN(C)c1cccc2c(S(=O)(=O)*)cccc12; Ahx = NCCCCCC(=O)O

The target in assay [1] is T1, human D-dimer protein (human, UniProt P02671 124-216; P02675 164-491; P02679 89-437).
T1 construct: Bought from Abcam Inc. UK; the chain make-up here is from general knowledge
T1 sequence (looked up) 1: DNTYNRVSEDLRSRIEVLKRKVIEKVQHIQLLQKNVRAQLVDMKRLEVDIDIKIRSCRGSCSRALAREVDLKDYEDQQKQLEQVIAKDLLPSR
T1 sequence (looked up) 2: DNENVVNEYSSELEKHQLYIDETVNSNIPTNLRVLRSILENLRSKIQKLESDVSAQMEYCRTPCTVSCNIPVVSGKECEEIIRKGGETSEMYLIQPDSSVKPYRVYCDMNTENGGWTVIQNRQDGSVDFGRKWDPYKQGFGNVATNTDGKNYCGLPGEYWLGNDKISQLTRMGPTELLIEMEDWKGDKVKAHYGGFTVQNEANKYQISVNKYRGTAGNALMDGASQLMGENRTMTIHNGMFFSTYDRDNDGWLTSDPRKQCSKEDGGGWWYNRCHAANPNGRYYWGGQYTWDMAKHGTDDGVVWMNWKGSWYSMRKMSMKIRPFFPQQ
T1 sequence (looked up) 3: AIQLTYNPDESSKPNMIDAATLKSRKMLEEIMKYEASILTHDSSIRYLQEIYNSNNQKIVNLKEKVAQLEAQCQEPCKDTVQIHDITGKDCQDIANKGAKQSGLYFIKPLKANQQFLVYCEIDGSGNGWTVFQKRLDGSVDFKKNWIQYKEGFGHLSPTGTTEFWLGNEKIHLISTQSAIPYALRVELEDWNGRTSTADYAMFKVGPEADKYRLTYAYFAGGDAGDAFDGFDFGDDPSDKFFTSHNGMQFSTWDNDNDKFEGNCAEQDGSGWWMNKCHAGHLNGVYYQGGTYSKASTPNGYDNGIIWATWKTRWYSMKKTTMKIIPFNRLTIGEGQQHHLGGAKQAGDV
The experiment in a line: SPR (Biacore 2000) screen, D-dimer immobilized on a CM5 chip, binder at 1, 10 and 100 nM, 3 min injection, 10 min clearance. Here is the method: (§1) The protein was then further diluted with 10 mM NaOAc at pH 4.6 to give a concentration of about 32 μg/mL. The D-dimer protein was covalently immobilized on the sensor chip surface by amine coupling with HBS-EP (10 mM HEPES, pH 7.4, 150 mM NaCl, 3 mM EDTA and 0.005% P20) (GE Healthcare Bio-Sciences, Uppsala, Sweden) as a running buffer. The CM5 sensor chip surface was activated for 7 min by injecting a solution of EDC/NHS (200 mM 1-ethyl-3-(3-dimethylaminopropyl)-carbodiimide hydrochloride/50 mM N-hydroxysuccinimide) (GE Healthcare Bio-Sciences, Uppsala, Sweden). The D-dimer protein was injected for 1.5 min at flow rate of 5 uL/min over the activated surface and followed by 7-min pulse of 1M ethanolamine at pH 8.5 to deactivate remaining active ester.
The interactions between the D-dimer protein and binders as well as surface competition experiments were studied using a Biacore 2000 instrument (GE Healthcare Bio-Sciences, Uppsala, Sweden), equilibrated at 25° C. The CM5 sensor chip (Research grade, Biacore) and reagents were from GE Healthcare Bio-Sciences, Uppsala, Sweden. For direct interaction studies between immobilized D-dimer protein and polypeptide conjugates, HBS-EP was used as running buffer. […] For minimum sample dispersion, the samples were injected at a flow rate of 50 uL/min. […]
Background: SPR reads the build-up and loss of mass on a sensor chip optically.

Assay [2] concerns the target T2, human Carbonic Anhydrase II (human, UniProt P00918 2-260). In words: SPR, HCAII immobilized on CM5, 1:1 model. Here is the method: (§2) HCAI and HCAII were immobilized in different flowcells on a CM-5 (Biacore) chip using standard EDC/NHS coupling in Acetate buffer at pH 5.5.
(§3) SPR measurements were performed on a Biacore® 2000 instrument, with the proteins immobilized on a Biacore® CM-5 sensor chips (GE Healthcare). All interaction studies were performed in Biacore® HSB-EP buffer with the addition of 1% (v/v) DMSO. HCAII (Sigma, lyophilized powder) was dissolved in Acetate buffer pH 5.5 to a 2 mg/mL solution. HCAII were conjugated to the surface by EDC/NHS coupling reactions in Acetate buffer pH 5.5. Solutions of the polypeptide binders were prepared in HBS-EP buffer from stock solutions of 20 μM in DMSO and allowed to flow over the surface at 20 μL/min, with blank injections after every series. All samples were adjusted to contain 1% (v/v) DMSO. Injections were made for 30 s and dissociation was allowed to proceed for 3000 s. Evaluation was performed using a 1:1 binding model.

Assay [3] concerns the target T2, human Carbonic Anhydrase II. In words: SPR (Biacore 2000), HCAII immobilized on CM5, 1:1 model. Here is the method: The sixteen polypeptide conjugates were also characterized by SPR biosensor analysis (Biacore®, GE Healthcare), using a Biacore® 2000 instrument, Biacore® CM-5 chip and HBS-EP buffer pH 7.4 (Biacore®, GE Healthcare) with addition of 1% DMSO for the interaction studies. Peptide solutions were prepared by dilution in buffer from 20 μM stock solutions in DMSO. HCAII was immobilized on the chip using standard EDC/NHS coupling in Acetate buffer pH 5.5. The binders were allowed to flow over the chip at 7 concentrations in the range from 1 nM to 500 nM and the interactions were evaluated using a 1:1 binding model (BiaEvaluation).
as §3, with “Evaluation was performed using a 1:1 binding model.” left out

Assay [4] has as its target T3, human Carbonic Anhydrase I (human, UniProt P00915 2-261).
T3 construct: also called HCAI; HCA I
The experiment in a line: SPR, HCAI immobilized on CM5, 1:1 model; the heads Koff and Kon seem to be swapped. As for the experimental part:
as §2, §3

Assay [5] has as its target T2, human Carbonic Anhydrase II. In words: SPR, ratio of the dissociation constants for HCAI and HCAII.
Excerpt: as §2

The target of assay [6] is T3, human Carbonic Anhydrase I. The experiment in a line: SPR, HCAI immobilized on CM5, 1:1 model. As for the experimental part:
as §2, §3

The target of assay [7] is T1, human D-dimer protein. In words: SPR surface competition, D-dimer immobilized; competitor 4-D10L17-GPRP at 100 nM; GPRP in running buffer, competing with 100 nM 4-D10L17-GPRP (Biacore). As for the experimental part:
(§4) The interactions between the D-dimer protein and binders as well as surface competition experiments were studied using a Biacore 2000 instrument (GE Healthcare Bio-Sciences, Uppsala, Sweden), equilibrated at 25° C. The CM5 sensor chip (Research grade, Biacore) and reagents were from GE Healthcare Bio-Sciences, Uppsala, Sweden. For direct interaction studies between immobilized D-dimer protein and polypeptide conjugates, HBS-EP was used as running buffer. […] For minimum sample dispersion, the samples were injected at a flow rate of 50 uL/min. After 10 min of dissociation the surface was regenerated by 30 s pulse injection of 10 mM glycine at pH 3.0. All injections were serial and first passed over the deactivated dextran surface and then over the immobilized surfaces. Blank injections were included for each measurement series and subtracted from the data. Experiments were performed at least twice, unless stated otherwise. […] The dissociation constants, Kd, were obtained using the Biaevaluation program version 3.2 (Biacore) and assuming a simple 1:1 Langmuir binding mechanism.

The target in assay [8] is T2, human Carbonic Anhydrase II. In words: fluorescence titration, 50 nM fluorescein labelled binder, HCAII 20 pM to 1 µM. Here is the method: The fluorescence titrations were carried out using polypeptides conjugated to a dansyl group rather than a 7-methoxycoumarin to avoid overlap with fluorescein, but a fluorophore is present in each sequence of the scaffold library to simplify identification and quantification throughout synthesis and purification. […] Fluorescence intensities of protein-binder mixtures were compared to intensities of binders without protein. The analysis was performed in 50 mM Hepes buffer at pH 7.4 containing 150 mM NaCl. HCAII was added in 25 steps over a concentration range from 20 pM to 1 μM to the binder at 50 nM concentration and the results analyzed by curve fitting.

In assay [9] the target is T1, human D-dimer protein. In words: SPR screen (Biacore 2000), D-dimer immobilized on CM5, 1:1 Langmuir model. As for the experimental part: as §1, §4
Assay [10] has as its target T1, human D-dimer protein. The experiment in a line: SPR (Biacore 2000), D-dimer immobilized on CM5, binders at 5-160 nM, 1:1 Langmuir model.

T3 sequence (P00915 2-261 limits assumed): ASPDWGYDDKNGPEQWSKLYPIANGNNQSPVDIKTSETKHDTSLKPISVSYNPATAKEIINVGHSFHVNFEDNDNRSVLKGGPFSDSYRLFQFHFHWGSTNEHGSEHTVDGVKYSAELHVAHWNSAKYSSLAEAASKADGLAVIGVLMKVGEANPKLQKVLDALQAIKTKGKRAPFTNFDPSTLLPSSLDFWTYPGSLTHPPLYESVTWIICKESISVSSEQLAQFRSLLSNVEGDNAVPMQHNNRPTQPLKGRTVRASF

B1: 1D15L8_GPRP (designed binder)
polypeptide: Ac-NEADLEAKIRHLAEKLEARGPEDAEQLAEQLARAFEAFARAG
ligand peptide, branch on Lys8: GPRP[Ahx]G
modifications: not fully specified (some residues); also: reporter group on Lys15, bond at chain A 8 to a chain's C-terminus via 6-aminocaproic acid-Gly
As for B1, the binding result in assay [1] is given as “no binding (tested: 100 nM)”.
As a reminder, the Kd is a measure of binding affinity in units of concentration. A higher Kd goes with a looser complex. In general, kon refers to the rate constant with which the complex forms. High values mean faster complex formation, low ones slower complex formation. On to Ac-NAADLEARIRHLRERLAARGPRDAAQLAEQLARK([Ahx-benzenesulphonamide carboxylic acid])FEK(X2)FARAG (designed binder, not fully specified (C-terminus)) [4-C37L34-B], for which the equilibrium dissociation constant (Kd) in assay [2] is 17 nM; in assay [3] it was 15 nM; in [6], 470 nM. The same molecule had a kon in assay [4] of 4400 M⁻¹ s⁻¹. Further, in assay [5], the “factor of discrimination between HCAI and HCAII” value is around 30 fold.
By IC50 is commonly meant the midpoint of a concentration-inhibition curve. In turn, GPRP (also called GPRP tetrapeptide) [GPRP peptide] came in with a half-maximal inhibitory concentration (IC50) in [7] of around 50 µM.
The molecule Ac-NAADLEAK([Ahx-benzenesulphonamide carboxylic acid])IRHLAEK(Dansyl)LAARGPVDC(N‑(5-fluoresceinyl)maleimide)AQLAEQLARRFEAFARAG (designed binder) [3-C15L8-B with dansyl and fluorescein (form for fluorescence titration)] yielded a Kd in assay [8] of 29 nM.
Consider Ac-NAADLEAK([Ahx-benzenesulphonamide carboxylic acid])IRHLAEK(X2)LAARGPVDAAQLAEQLARRFEAFARAG (designed binder) [3-C15L8-B], for which the Kd was determined as 60 nM in assay [2], 43 nM in assay [3] and 390 nM in assay [6].
Molecule Ac-NAADLEAAIKHLAEALK([Gly-Ahx-Pro-Arg-Pro-Gly])ARGPVDAAQLAEQLARAFEAFARAG (designed binder, also: reporter on Lys10, 'D' in the name not explained) [2D10L17_GPRP] returned a Kd in assay [9] of 10.3 µM.

B2: 2D15L8_GPRP (designed binder)
chain: Ac-NEADLEAK([Gly-Ahx-Pro-Arg-Pro-Gly])IRHLAEKLAARGPVDAAQLAEQLARAFEAFARAG
modifications: also: reporter on Lys15
notes: 'D' in place of 'C' in the name is not explained; tied to 2-C15L8 by the rest of the name
B2 returned a Kd in assay [9] of 10.4 µM. This Kd and that of the molecule before are within 1.5-fold of each other.
In the case of Ac-NEADLEAAIRHLAEALAARGPK([Gly-Ahx-Pro-Arg-Pro-Gly])DAKQLAEQLARAFEAFARAG (designed binder, also: reporter on Lys25, 'D' in the name not explained) [2D25L22_GPRP], binding in assay [9] was put at a Kd of 16.1 µM. This Kd is about 1.5-fold higher than that of the molecule before.
Consider Ac-NAADLEAAIK(Dansyl)HLAEALK([Ahx-benzenesulphonamide carboxylic acid])ERGPEDC(N‑(5-fluoresceinyl)maleimide)EQLAEQLARAFEAFARAG (designed binder) [1-C10L17-B with dansyl and fluorescein (form for fluorescence titration)], for which the dissociation constant Kd in [8] amounted to 5 nM. That is a single-digit nanomolar value.
In turn, Ac-NAADLEAAIRHLAERLAARGPVDAAQLAEQLAAK([Gly-Ahx-Pro-Arg-Pro-Gly])FEKFARAG (designed binder, also: reporter on Lys37, 'D' in the name not explained) [2D37L34_GPRP] showed a Kd in assay [9] of 13.6 µM.
In assay [9], Ac-NEADLEAAIRHLAERLEARGPADAAQLAEQLAAK([Gly-Ahx-Pro-Arg-Pro-Gly])FEKFARAG (designed binder, also: reporter on Lys37, 'D' in the name not explained) [1D37L34_GPRP] gave a Kd of 5.07 µM.

B3: 3D37L34_GPRP (designed binder)
chain: Ac-NAADLEAAIRHLAERLAARGPVDAAQLAEQLARK([Gly-Ahx-Pro-Arg-Pro-Gly])FEKFARAG
modifications: also: reporter on Lys37
notes: 'D' in the name not explained; a Cys in the loop region may be present
B3: the dissociation constant Kd came out at 1.15 µM in assay [9] and 15.4 nM in assay [10].
